Source: patent publication US20240018502A1
Numbering of substitutions follows the chain as printed. Numbers in names are those of the source.

B1: Q38Y/I41S/D60bT/F60eR/Y60gW/D96M/F97N/T98G/F99L/C122S/G151N/Q175L (enzyme)
chain: VVGGTDADEGEWPWQVSLHALGYGHSCGASLISPNWLVSAAHCYIDTRGRRWSDPTQWTAFLGLHDQSQRSAPGVQERRLKRIISHPFFNMNGLDYDIALLELEKPAEYSSMVRPISLPDASHVFPAGKAIWVTGWGHTQYGGTNALILQKGEIRVINQTTCENLLPQLITPRMMCVGFLSGGVDSCQGDSGGPLSSVEADGRIFQAGVVSWGDGCAQRNKPGVYTRLPLFRDWIKENTGV
B2: Q38G/H40R/I41H/D60bN/F97D/F99L/C122S/Q175L/Q192G (enzyme)
chain: VVGGTDADEGEWPWQVSLHALGGGRHCGASLISPNWLVSAAHCYIDNRGFRYSDPTQWTAFLGLHDQSQRSAPGVQERRLKRIISHPFFNDDTLDYDIALLELEKPAEYSSMVRPISLPDASHVFPAGKAIWVTGWGHTQYGGTGALILQKGEIRVINQTTCENLLPQLITPRMMCVGFLSGGVDSCGGDSGGPLSSVEADGRIFQAGVVSWGDGCAQRNKPGVYTRLPLFRDWIKENTGV
B3: ins97aA/F97G/T98L/C122S/Q175M/Q192A/D217I/K224R (enzyme)
chain: VVGGTDADEGEWPWQVSLHALGQGHICGASLISPNWLVSAAHCYIDDRGFRYSDPTQWTAFLGLHDQSQRSAPGVQERRLKRIISHPFFNDGALFDYDIALLELEKPAEYSSMVRPISLPDASHVFPAGKAIWVTGWGHTQYGGTGALILQKGEIRVINQTTCENLLPQMITPRMMCVGFLSGGVDSCAGDSGGPLSSVEADGRIFQAGVVSWGIGCAQRNRPGVYTRLPLFRDWIKENTGV
B4: MTSP-1 protease domain I41T/F97L/F99L/C122S/G151N/Q175S/Q192S/D217W (enzyme)
chain: B2 chain with G23Q, R25H, H26T, N47D, D92L, G145N, L169S, G188S, D214W
B5: MTSP-1 F97D/F99L/C122S/Q192G (enzyme)
chain: B2 chain with G23Q, R25H, H26I, N47D, L169Q
B6: MTSP-1 H40K/I41L/Y60gF/F97D/F99L/C122S/G151N/Q175R (enzyme)
chain: B2 chain with G23Q, R25K, H26L, N47D, Y52F, G145N, L169R, G188Q
B7: MTSP-1 C122S/G151N/G193A (enzyme)
chain: B2 chain with G23Q, R25H, H26I, N47D, D92F, L94F, G145N, L169Q, G188Q, G189A
B8: MTSP-1 F97E/F99L/C122S/D217I/K224N (enzyme)
chain: B2 chain with G23Q, R25H, H26I, N47D, D92E, L169Q, G188Q, D214I, K221N
B9: MTSP-1 H40R/I41H/F97D/F99L/C122S/G151D/Q175M/Q192G/D217V (enzyme)
chain: B2 chain with G23Q, N47D, G145D, L169M, D214V
B10: MTSP-1 H40R/I41H/F97E/C122S (enzyme)
chain: B2 chain with G23Q, N47D, D92E, L94F, L169Q, G188Q
B11: MTSP-1 H40R/I41H/Y60gH/F97D/F99L/C122S/G151N/Q175A/Q192H/D217I/K224R (enzyme)
chain: B2 chain with G23Q, N47D, Y52H, G145N, L169A, G188H, D214I, K221R
B12: MTSP-1 I41G/F97V/F99L/C122S/G151Q/Q175M/Q192A/D217L (enzyme)
chain: B2 chain with G23Q, R25H, H26G, N47D, D92V, G145Q, L169M, G188A, D214L
B13: MTSP-1 H40R/I41H/Y60gF/F97D/F99L/C122S/Q175M/Q192G/D217W/K224R (enzyme)
chain: B2 chain with G23Q, N47D, Y52F, L169M, D214W, K221R
B14: MTSP-1 H40R/I41H/Y60gF/F97D/F99L/C122S/Q192G/D217R/K224A (enzyme)
chain: B2 chain with G23Q, N47D, Y52F, L169Q, D214R, K221A
B15: MTSP-1 H40R/I41H/Y60gH/F97D/F99L/C122S/Q175M/Q192G/D217I/K224R (enzyme)
chain: B2 chain with G23Q, N47D, Y52H, L169M, D214I, K221R
B16: MTSP-1 H40R/I41H/Y60gL/F97D/F99L/C122S/G151N (enzyme)
chain: B2 chain with G23Q, N47D, Y52L, G145N, L169Q, G188Q
B17: MTSP-1 C122S/G193E (enzyme)
chain: B2 chain with G23Q, R25H, H26I, N47D, D92F, L94F, L169Q, G188Q, G189E
B18: MTSP-1 H40R/I41H/F97D/F99L/Q192G (enzyme)
chain: B2 chain with G23Q, N47D, S117C, L169Q
B19: MTSP-1 H40R/I41H/Y60gN/F97D/F99L/C122S/G151N/Q175K/Q192S/D217S/K224L (enzyme)
chain: B2 chain with G23Q, N47D, Y52N, G145N, L169K, G188S, D214S, K221L
B20: MTSP-1 I41G/F97S/F99L/C122S/G151N/Q175L/Q192G/D217I (enzyme)
chain: B2 chain with G23Q, R25H, H26G, N47D, D92S, G145N, D214I
B21: MTSP-1 I41T/F97W/F99L/C122S/G151N/Q175M/Q192G/D217L (enzyme)
chain: B2 chain with G23Q, R25H, H26T, N47D, D92W, G145N, L169M, D214L
B22: MTSP-1 C122S/G193A (enzyme)
chain: B2 chain with G23Q, R25H, H26I, N47D, D92F, L94F, L169Q, G188Q, G189A
B23: MTSP-1 H40R/I41H/F97D/F99L/C122S/Q192G (enzyme)
chain: B2 chain with G23Q, N47D, L169Q
B24: MTSP-1 H40R/I41H/F97D/F99L/C122S/Q175M/Q192G/D217V/K224Y (enzyme)
chain: B2 chain with G23Q, N47D, L169M, D214V, K221Y
B25: MTSP-1 I41G/F97L/F99L/C122S/Q175A/Q192T/D217V (enzyme)
chain: B2 chain with G23Q, R25H, H26G, N47D, D92L, L169A, G188T, D214V
B26: MTSP-1 H40R/I41H/F97D/C122S/G151N/Q175M/Q192A/D217S/K224R (enzyme)
chain: B2 chain with G23Q, N47D, L94F, G145N, L169M, G188A, D214S, K221R
B27: MTSP-1 H40R/I41H/Y60gF/F97D/F99L/C122S/Q192G/D217M/K224R (enzyme)
chain: B2 chain with G23Q, N47D, Y52F, L169Q, D214M, K221R
B28: MTSP-1 H40K/I41M/Y60gF/F97D/F99L/C122S/G151N/Q175L/Q192D (enzyme)
chain: B2 chain with G23Q, R25K, H26M, N47D, Y52F, G145N, G188D
B29: MTSP-1 H40R/I41H/C122S/G151N (enzyme)
chain: B2 chain with G23Q, N47D, D92F, L94F, G145N, L169Q, G188Q
B30: MTSP-1 H40R/I41H/Y60gH/F97D/F99L/C122S/Q175M/Q192G/D217I/K224L (enzyme)
chain: B2 chain with G23Q, N47D, Y52H, L169M, D214I, K221L
B31: MTSP-1 H40K/I41M/Y60gG/F97D/F99L/C122S/G151N/Q175R/Q192R/D217V/K224S (enzyme)
chain: B2 chain with G23Q, R25K, H26M, N47D, Y52G, G145N, L169R, G188R, D214V, K221S
B32: MTSP-1 I41G/F97I/F99L/C122S/G151L/Q175M/Q192S/D217V (enzyme)
chain: B2 chain with G23Q, R25H, H26G, N47D, D92I, G145L, L169M, G188S, D214V
B33: MTSP-1 H40R/I41H/F97D/F99L/C122S/Q175L/Q192G/D217K/K224A (enzyme)
chain: B2 chain with G23Q, N47D, D214K, K221A
B34: MTSP-1 protease domain I41D/F97T/F99M/C122S/Q192V/D217M (enzyme)
chain: B2 chain with G23Q, R25H, H26D, N47D, D92T, L94M, L169Q, G188V, D214M
B35: MTSP-1 H40R/I41H/F97D/C122S/G151N (enzyme)
chain: B2 chain with G23Q, N47D, L94F, G145N, L169Q, G188Q
B36: MTSP-1 H40R/I41H/F97D/F99L/C122S/Q175K/Q192G/D217I/K224H (enzyme)
chain: B2 chain with G23Q, N47D, L169K, D214I, K221H
B37: MTSP-1 H40R/I41H/F97D/F99L/C122S/Q175M/Q192G/D217S (enzyme)
chain: B2 chain with G23Q, N47D, L169M, D214S
B38: MTSP-1 D96_F97delinsWYY/T98P/F99L/C122S (enzyme)
chain: B3 chain with D91W, G92Y, A93Y, L94P, F95L, M170Q, A189Q, I215D, R222K
B39: MTSP-1 Q38H/I41S/D96K/F97G/ins97aV/T98P/F99L/C122S/Q175L/Q192D (enzyme)
chain: B3 chain with Q23H, I26S, D91K, A93V, L94P, F95L, M170L, A189D, I215D, R222K
B40: MTSP-1 Q38H/I41S/D96K/F97G/ins97aV/T98P/F99L/C122S/Q192D (enzyme)
chain: B3 chain with Q23H, I26S, D91K, A93V, L94P, F95L, M170Q, A189D, I215D, R222K
B41: MTSP-1 I41S/D96K/F97G/ins97aV/T98P/F99L/C122S/Q175L/Q192D (enzyme)
chain: B3 chain with I26S, D91K, A93V, L94P, F95L, M170L, A189D, I215D, R222K
B42: MTSP-1 F97T/ins97aE/T98G/F99L/C122S/Q175L/Q192E (enzyme)
chain: B3 chain with G92T, A93E, L94G, F95L, M170L, A189E, I215D, R222K

Target: human complement protein C3 (human) (UniProt P01024)
Experiment: cell-based or functional assay

Sequence of human complement protein C3 (human) (P01024 23-667, chain 1 of 2): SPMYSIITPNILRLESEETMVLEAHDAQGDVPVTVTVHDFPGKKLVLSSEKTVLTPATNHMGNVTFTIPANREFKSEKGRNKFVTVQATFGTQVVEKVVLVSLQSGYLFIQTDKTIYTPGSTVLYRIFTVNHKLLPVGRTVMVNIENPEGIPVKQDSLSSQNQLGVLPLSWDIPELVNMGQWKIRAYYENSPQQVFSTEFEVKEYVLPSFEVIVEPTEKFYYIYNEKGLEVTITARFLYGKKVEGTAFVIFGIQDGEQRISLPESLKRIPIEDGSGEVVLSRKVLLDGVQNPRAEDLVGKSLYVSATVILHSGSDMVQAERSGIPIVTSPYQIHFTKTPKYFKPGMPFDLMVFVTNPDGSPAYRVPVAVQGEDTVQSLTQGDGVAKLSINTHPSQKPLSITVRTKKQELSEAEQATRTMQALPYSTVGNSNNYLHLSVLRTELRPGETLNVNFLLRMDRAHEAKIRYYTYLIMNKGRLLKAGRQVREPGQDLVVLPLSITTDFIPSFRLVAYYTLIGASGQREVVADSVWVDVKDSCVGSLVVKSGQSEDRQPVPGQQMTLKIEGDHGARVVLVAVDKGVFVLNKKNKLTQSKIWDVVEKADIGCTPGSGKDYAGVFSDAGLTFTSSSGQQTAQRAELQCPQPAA
Sequence of human complement protein C3 (human) (P01024 672-1663, chain 2 of 2): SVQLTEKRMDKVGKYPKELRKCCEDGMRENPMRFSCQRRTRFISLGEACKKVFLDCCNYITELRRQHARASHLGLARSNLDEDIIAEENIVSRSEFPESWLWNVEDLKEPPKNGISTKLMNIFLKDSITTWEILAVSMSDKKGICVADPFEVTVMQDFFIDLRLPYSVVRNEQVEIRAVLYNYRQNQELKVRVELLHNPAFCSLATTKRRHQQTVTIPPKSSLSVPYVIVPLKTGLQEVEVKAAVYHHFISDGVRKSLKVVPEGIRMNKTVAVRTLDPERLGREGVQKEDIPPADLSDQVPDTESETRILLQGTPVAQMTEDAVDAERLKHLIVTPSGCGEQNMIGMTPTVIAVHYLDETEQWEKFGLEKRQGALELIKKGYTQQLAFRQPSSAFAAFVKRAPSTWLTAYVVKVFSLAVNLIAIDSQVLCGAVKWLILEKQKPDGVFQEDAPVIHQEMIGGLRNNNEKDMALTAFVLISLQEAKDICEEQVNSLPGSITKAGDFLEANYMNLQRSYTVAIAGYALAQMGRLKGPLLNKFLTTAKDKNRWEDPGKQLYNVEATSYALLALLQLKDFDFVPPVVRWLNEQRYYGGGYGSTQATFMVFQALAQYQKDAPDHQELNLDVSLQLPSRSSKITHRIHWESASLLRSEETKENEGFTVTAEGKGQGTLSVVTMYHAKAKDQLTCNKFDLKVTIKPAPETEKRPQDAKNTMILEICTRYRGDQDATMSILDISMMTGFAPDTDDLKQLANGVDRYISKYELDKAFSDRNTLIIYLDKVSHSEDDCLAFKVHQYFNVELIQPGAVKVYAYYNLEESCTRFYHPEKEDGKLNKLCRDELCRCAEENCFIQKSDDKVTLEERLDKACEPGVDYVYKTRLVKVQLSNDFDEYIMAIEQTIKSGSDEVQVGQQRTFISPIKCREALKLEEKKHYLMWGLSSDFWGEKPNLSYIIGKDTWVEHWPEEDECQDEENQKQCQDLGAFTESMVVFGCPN

B1 and B2 are within 1.5-fold of each other in EC50 (nM), cleavage of purified hC3 in vitro: 1.08 nM for the first, 0.867 nM for the second.

For B3, the EC50 (nM), cleavage of purified hC3 in vitro was 0.866 nM.

Target: plasma purified human complement protein C3 (human) (UniProt P01024)
Experiment: cell-based or functional assay

Sequence of plasma purified human complement protein C3 (human) (P01024 23-667, chain 1 of 2): as the sequence (P01024 23-667, chain 1 of 2) above
Sequence of plasma purified human complement protein C3 (human) (P01024 672-1663, chain 2 of 2): as the sequence (P01024 672-1663, chain 2 of 2) above

Compared with B4, B34 is 2.6-fold higher in EC50 hC3 cleavage: 24.2 nM for the first, 63.8 nM for the second.

Compared with B5, B6 is 3-fold higher in EC50 of hC3 cleavage: 78.1 nM for the first, 237 nM for the second.

Compared with B7, B8 is 14-fold lower in EC50 of hC3 cleavage: 85.7 nM for the first, 6.33 nM for the second.

B9 and B10 are within 1.5-fold of each other in EC50 of hC3 cleavage: 70.8 nM for the first, 51.7 nM for the second.

Going from B11 to B12, the EC50 of hC3 cleavage falls from 19.8 nM to 9.74 nM (2-fold).

Compared with B13, B14 is 2.6-fold higher in EC50 of hC3 cleavage: 9.92 nM for the first, 25.9 nM for the second.

Compared with B15, B16 is 6.9-fold higher in EC50 of hC3 cleavage: 7.94 nM for the first, 54.9 nM for the second.

Going from B17 to B18, the EC50 of hC3 cleavage falls from 119 nM to 24.1 nM (4.9-fold).

First: B19
Second: B20
The EC50 of hC3 cleavage of the first is 27-fold higher: 187 nM for the first, 6.84 nM for the second.

Compared with B21, B22 is 3.7-fold higher in EC50 of hC3 cleavage: 12.1 nM for the first, 44.7 nM for the second.

Going from B23 to B24, the EC50 of hC3 cleavage falls from 35.4 nM to 2.76 nM (13-fold).

First: B25
Second: B26
The EC50 of hC3 cleavage of the first is 61-fold lower: 7.75 nM for the first, 470 nM for the second.

Going from B27 to B28, the EC50 of hC3 cleavage rises from 38 nM to 589 nM (16-fold).

Going from B29 to B30, the EC50 of hC3 cleavage falls from 59.6 nM to 3.72 nM (16-fold).

Compared with B31, B32 is 180-fold lower in EC50 of hC3 cleavage: 509 nM for the first, 2.84 nM for the second.

Compared with B33, B35 is 7.8-fold higher in EC50 of hC3 cleavage: 14.1 nM for the first, 110 nM for the second.

B36 and B37 are within 1.5-fold of each other in EC50 of hC3 cleavage: 19.4 nM for the first, 24.4 nM for the second.

B38 and B39 are within 1.5-fold of each other in EC50 of hC3 cleavage: 22.6 nM for the first, 22 nM for the second.

Compared with B40, B41 is 1.6-fold lower in EC50 of hC3 cleavage: 108 nM for the first, 68.6 nM for the second.

B42 showed an EC50 of hC3 cleavage of 259 nM.
